According to the supplement of paper PMC10126150:
± gives the standard deviation of the averaged measurements.

test system: ATP; assay: switch fluorescence ratio, 500 uM ATP over buffer (Cy3 cluster intensity, sum of 5 cycles each) (fold (ratio)); higher = stronger signal-on switching upon ATP binding; sequences stand for … in TCGTCGGCAGCGTCAGATGTGTATAAGAGACAGTTTTTTTTTTTTTTTTTTTTTTTTT…TC; conditions: aptamer strand: ATP DNA aptamer (quencher-CACCTGGGGGAGTATTGCGGAGGAAGG + anchor), 100 nM annealed; ATP concentration: 500 uM
Summary of the method: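 Five buffer/ATP imaging cycles were run on Cy3-labelled switching-strand clusters on a modified Illumina MiSeq flow-cell, with NaOH stripping and re-annealing between cycles. In each cycle, clusters annealed to 100 nM quencher-labelled ATP aptamer were imaged in selection buffer, then after 15 min with 500 uM ATP at 22 °C. Per cluster, the fluorescence ratio is summed target-cycle over summed buffer-cycle Cy3 intensity, averaged per switch-domain sequence. Only clusters within 100-1000 RFU were kept.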
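Note: ATP exposure 15 min at 22 °C before imaging.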

| Sequence | switch fluorescence ratio |
| --- | --- |
| TCCTGCTCCG | 1.56 ± 0.13 |
| GATTTGCCGA | 1.034 ± 0.005 |
| CTGTGATGG | 1.0776 ± 0.00079 |
| AAGCTTATGC | 1.04 ± 0.085 |
| GGACACATGC | 1.1 ± 0.14 |
| AGCGGTCTAT | 1.021 ± 0.005 |
| ATGCGAGTGG | 1.01 ± 0.047 |
| CAACTGGTAT | 1.17 ± 0.26 |
| TTGGCGGGGC | 1.02 ± 0.012 |
| TATGGATGGC | 1.01 ± 0.058 |
| TTTGCGGCGT | 0.986 ± 0.022 |
| GGGAGAGTTG | 0.993 ± 0.023 |
| ACAGGGTTAC | 0.991 ± 0.027 |
| GAGAACGAGG | 0.983 ± 0.023 |
| CAAAACTACT | 1.06 ± 0.011 |
| AGAGTAGTTG | 0.9708 ± 0.0076 |
| GGTTTTTTTG | 1.02 ± 0.037 |
| CGAGTTTCGG | 1.011 ± 0.0073 |
| CTCATTGGGC | 0.991 ± 0.027 |
| TGGAGATTGT | 0.943 ± 0.032 |
| CGAAATGTAA | 0.992 ± 0.024 |
| TTCAAGGAGG | 0.978 ± 0.016 |
| AAATGGATCA | 1.024 ± 0.0029 |
| CCGATTAATA | 1.34 ± 0.028 |
| TAGTGCACGG | 0.995 ± 0.039 |
| AGGGGGAGAG | 0.969 ± 0.013 |

| Sequence | switch fluorescence ratio |
| --- | --- |
| GGCGGAGTAT | 1 ± 0.017 |
| AAATCGTGCA | 1 ± 0.03 |
| ATGGGTACGG | 1.02 ± 0.029 |
| AACTGAGATT | 1.02 ± 0.024 |
| AACGAATTAG | 1.04 ± 0.038 |
| CATTGACCGC | 1.09 ± 0.014 |
| TTTTTAATTT | 0.993 ± 0.023 |
| ATGTGCTGCC | 0.983 ± 0.019 |
| ATAGGATGTG | 1.01 ± 0.023 |
| AGGTATGCGT | 0.985 ± 0.041 |
| GTATGCCGTC | 0.988 ± 0.076 |
| CAATAATATG | 0.993 ± 0.029 |
| ACTACTGGGA | 0.976 ± 0.041 |
| ATATGTCTGG | 0.953 ± 0.017 |
| TTGTGTGGGT | 0.993 ± 0.02 |
| GAAATTGACC | 1.02 ± 0.038 |
| GTACGGGGGA | 1.002 ± 0.0056 |
| ACAATCGAGC | 0.988 ± 0.047 |
| ATATTGGAGA | 1.13 ± 0.25 |
| CGTCTGGGCG | 0.957 ± 0.097 |
| CGTTTGGACG | 0.989 ± 0.079 |
| TACCGGGCAC | 1.11 ± 0.03 |
| CTGTAGATTG | 0.983 ± 0.019 |
| TTCGCGGCAC | 2.44 ± 1.3 |
| CGTGGTTGTC | 0.9871 ± 0.0066 |
| ATATACCGTC | 1.05 ± 0.028 |

| Sequence | switch fluorescence ratio |
| --- | --- |
| GCCTTTTTTA | 0.996 ± 0.016 |
| TGCTGGGGGC | 0.971 ± 0.022 |
| GGTTATATTT | 1.03 ± 0.072 |
| TGCTATTGTG | 0.959 ± 0.02 |
| TATTGTGACT | 1.021 ± 0.01 |
| TTTAGCGTCA | 0.9891 ± 0.0056 |
| TTCTTGAAG | 0.966 ± 0.02 |
| TTGATAGTAA | 1.04 ± 0.09 |
| ATCTATCGTG | 0.991 ± 0.021 |
| GCACCTCAAT | 1.25 ± 0.037 |
| AAAGGCCATG | 1.02 ± 0.0045 |
| AAGCTTGTGT | 0.997 ± 0.069 |
| TGTCGGATCG | 1 ± 0.013 |
| CCGAAAATAG | 3.58 ± 0.48 |
| TTATGGGGAG | 1.005 ± 0.0034 |
| GGAATTGATG | 1.04 ± 0.046 |
| GAGGTATTGG | 1.01 ± 0.022 |
| GAGTATACGT | 1.022 ± 0.0048 |
| TCGTTGCATG | 1.01 ± 0.065 |
| TAAACAATTT | 0.978 ± 0.013 |
| AATTCGGCTT | 0.978 ± 0.0088 |
| GGGTATGTAA | 1.01 ± 0.066 |
| CATTTGATCC | 0.978 ± 0.0026 |
| GTTGGGAAAA | 1.01 ± 0.034 |
| CGTTTTCGGA | 0.982 ± 0.032 |
| AGAGGAAAGG | 1.022 ± 0.0041 |

| Sequence | switch fluorescence ratio |
| --- | --- |
| ACGGTTTTCA | 0.977 ± 0.011 |
| TGCTAGATAA | 1 ± 0.039 |
| CATTTACCAT | 1.03 ± 0.014 |
| GAAGTAGCCT | 0.9985 ± 0.0086 |
| CAATGGATGA | 1 ± 0.015 |
| AGGAATATGG | 1.04 ± 0.1 |
| TCACTCGAAG | 1.01 ± 0.0067 |
| TCGTAAGTAA | 1.04 ± 0.0094 |
| TGAACGGGTG | 1.04 ± 0.068 |
| TCGTGAGTTT | 0.996 ± 0.035 |
| AGGATGCATT | 1.8 ± 1.1 |
| AGGGTTAACA | 1.01 ± 0.016 |
| AAGAGGTGGA | 1.028 ± 0.0098 |
| TGTAGGGGGA | 0.999 ± 0.052 |
| GATAGATGGC | 0.989 ± 0.039 |
| GGATTGAGGC | 0.968 ± 0.0046 |
| GTTTAAACGC | 1.01 ± 0.026 |
| TTTTGGACCT | 1.3 ± 0.0093 |
| CGGTATAACG | 0.997 ± 0.043 |
| GGTATGGGAG | 0.9913 ± 0.001 |
| TTGACCGATT | 0.978 ± 0.041 |
| GGGTAGAATT | 1.03 ± 0.039 |
| CTCGATGGGA | 0.974 ± 0.061 |
| ATATGGGGGG | 0.998 ± 0.023 |
| TACGTTGAGC | 1.02 ± 0.02 |
| CCTTGAGGGG | 0.9925 ± 0.0036 |

| Sequence | switch fluorescence ratio |
| --- | --- |
| GTGGATAGGT | 1.01 ± 0.045 |
| ATGTTTCAGT | 0.9982 ± 0.0021 |
| AGGATAATGA | 0.998 ± 0.03 |
| TTGTAGGGGT | 1.02 ± 0.052 |
| CATATTGGAT | 1.02 ± 0.036 |
| CCACGTGAGG | 1.03 ± 0.012 |
| GGCGAAGTCG | 0.999 ± 0.023 |
| ATACAAGTCT | 1.03 ± 0.059 |
| ACCAGTCTCG | 1.07 ± 0.08 |
| AAGTGCGACC | 1.03 ± 0.057 |
| GTTGGAAGAT | 1.03 ± 0.015 |
| ATCGGTGGGG | 0.963 ± 0.019 |
| TCCAGGGTAA | 1.0425 ± 0.00073 |
| AACGTTAGGA | 1.03 ± 0.051 |
| TATGCATTGT | 1.01 ± 0.017 |
| CGAGGGGTTA | 1.01 ± 0.022 |
| CCTGTGGTGC | 1.342 ± 0.0072 |
| CGTGGTGGGA | 0.9737 ± 0.0088 |
| CTTAGGGCGA | 0.9728 ± 0.001 |
| TAATTGGATG | 0.992 ± 0.027 |
| ATCGGACGCG | 0.987 ± 0.016 |
| TTTTGAGCTG | 1.02 ± 0.029 |
| TTGTTGTTAT | 0.991 ± 0.017 |
| CTCGGGGGTA | 0.963 ± 0.031 |
| GGATATCTGG | 1.014 ± 0.0053 |
| TGAAATTAGT | 1.01 ± 0.013 |

| Sequence | switch fluorescence ratio |
| --- | --- |
| TCGGGATCCT | 1.35 ± 0.51 |
| GGTCCACCGT | 0.989 ± 0.014 |
| GGGGTTCTAG | 0.999 ± 0.0042 |
| TATGTCATTT | 0.957 ± 0.011 |
| AACTCGGAAT | 1.03 ± 0.028 |
| GGCTCCGGCG | 1.04 ± 0.032 |
| TCGAGAAGGT | 0.993 ± 0.054 |
| TCCGAGGGGT | 1.67 ± 0.91 |
| AGAGTGCGGT | 1.011 ± 0.006 |
| GAGTTGTTGG | 0.968 ± 0.024 |
| AAGGGCCGCG | 1 ± 0.017 |
| ACCTGGCATC | 1.122 ± 0.0016 |
| GATGGACTTT | 1.03 ± 0.013 |
| ACAGCAGTTG | 1.04 ± 0.042 |
| TTCGGATATT | 1.13 ± 0.23 |
| AGCTACGGTG | 1.044 ± 0.0052 |
| GCGCCAGTTT | 0.992 ± 0.02 |
| CATGTTGGAG | 0.9924 ± 0.0053 |
| AAAATAAAG | 0.947 ± 0.077 |
| CGGGGGAGCA | 1.01 ± 0.017 |
| AGATGACTTT | 0.98 ± 0.034 |
| GCTGTGGGTG | 1 ± 0.021 |
| GGTTTATATA | 1.006 ± 0.0018 |
